# From the supplement of paper PMC9112550, “Optimization of the antimicrobial peptide Bac7 by deep mutational scanning” (BMC Biology, 2022)
# Test system: Escherichia coli TOP10
# Assay: shrunken log2 fold change of peptide-encoding DNA abundance (4.5 h post-induction vs induction); higher = less antimicrobial activity (less host growth inhibition)
# Settings: time post-induction: 4.5 h; library: site-saturation at positions 5, 18, 19, 20
# 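Further: peptides expressed intracellularly from a pBAD plasmid library in pooled LB shake-flask culture, induced with 0.3% L-arabinose, DNA abundance read by NGS, three biological replicates, DESeq2 with apeglm shrinkage.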
row,Sequence,shrunken log2 fold change
1,RRIRSRPPRLPRPRPRPVHSPRP,0.139
2,RRIRKRPPRLPRPRPRPRGTPRP,0.648
3,RRIRHRPPRLPRPRPRPRRTPRP,0.0506
4,RRIRHRPPRLPRPRPRPELNPRP,-0.098
5,RRIRGRPPRLPRPRPRPYKKPRP,-0.186
6,RRIRNRPPRLPRPRPRPVREPRP,0.249
7,RRIRLRPPRLPRPRPRPWNYPRP,-0.43
8,RRIRMRPPRLPRPRPRPEIVPRP,0.574
9,RRIRNRPPRLPRPRPRPKFIPRP,-0.602
10,RRIRWRPPRLPRPRPRPHIWPRP,-0.131
11,RRIRSRPPRLPRPRPRPPWQPRP,0.449
12,RRIRLRPPRLPRPRPRPTLYPRP,2.28
13,RRIRDRPPRLPRPRPRPTKVPRP,-0.274
14,RRIRPRPPRLPRPRPRPKDDPRP,-0.0737
15,RRIRTRPPRLPRPRPRPTLFPRP,-0.113
16,RRIRARPPRLPRPRPRPYCFPRP,-0.178
17,RRIRFRPPRLPRPRPRPSRQPRP,-0.0117
18,RRIRCRPPRLPRPRPRPIQYPRP,-0.308
19,RRIRKRPPRLPRPRPRPYAVPRP,0.916
20,RRIRSRPPRLPRPRPRPESNPRP,-0.126
21,RRIRDRPPRLPRPRPRPWSSPRP,0.0046
22,RRIRRRPPRLPRPRPRPSETPRP,0.493
23,RRIRKRPPRLPRPRPRPFQFPRP,-0.018
24,RRIRRRPPRLPRPRPRPMAVPRP,-0.165
25,RRIRHRPPRLPRPRPRPETSPRP,0.0165

row,Sequence,shrunken log2 fold change
1,RRIRNRPPRLPRPRPRPDKVPRP,-0.00145
2,RRIRCRPPRLPRPRPRPPAFPRP,0.504
3,RRIRHRPPRLPRPRPRPRQAPRP,0.495
4,RRIRKRPPRLPRPRPRPGNMPRP,0.257
5,RRIRVRPPRLPRPRPRPGNMPRP,0.151
6,RRIRARPPRLPRPRPRPKVQPRP,0.0571
7,RRIRVRPPRLPRPRPRPTGDPRP,-0.0504
8,RRIRYRPPRLPRPRPRPDMWPRP,-1.03
9,RRIRWRPPRLPRPRPRPGENPRP,-0.0316
10,RRIRHRPPRLPRPRPRPGMTPRP,-0.039
11,RRIRPRPPRLPRPRPRPSYIPRP,-0.458
12,RRIRARPPRLPRPRPRPPLHPRP,0.467
13,RRIRIRPPRLPRPRPRPDIPPRP,-0.112
14,RRIRYRPPRLPRPRPRPPNYPRP,-0.523
15,RRIRRRPPRLPRPRPRPWRAPRP,0.181
16,RRIRFRPPRLPRPRPRPEYYPRP,-0.0413
17,RRIRNRPPRLPRPRPRPMTLPRP,-0.337
18,RRIRRRPPRLPRPRPRPKPHPRP,0.536
19,RRIRRRPPRLPRPRPRPVWNPRP,0.0425
20,RRIRWRPPRLPRPRPRPSSMPRP,-0.411
21,RRIRGRPPRLPRPRPRPRGEPRP,1.04
22,RRIRFRPPRLPRPRPRPGLMPRP,-0.125
23,RRIRGRPPRLPRPRPRPGPTPRP,1.51
24,RRIRFRPPRLPRPRPRPSEGPRP,0.0716
25,RRIRRRPPRLPRPRPRPYVSPRP,-0.00885

row,Sequence,shrunken log2 fold change
1,RRIRLRPPRLPRPRPRPCWWPRP,0.26
2,RRIRVRPPRLPRPRPRPCVQPRP,0.0444
3,RRIRWRPPRLPRPRPRPCFNPRP,-0.382
4,RRIRGRPPRLPRPRPRPLAKPRP,1.29
5,RRIRWRPPRLPRPRPRPNTWPRP,0.245
6,RRIRERPPRLPRPRPRPGRRPRP,0.0607
7,RRIRERPPRLPRPRPRPVTYPRP,-0.17
8,RRIRWRPPRLPRPRPRPSDGPRP,-0.785
9,RRIRKRPPRLPRPRPRPPVNPRP,0.04
10,RRIRPRPPRLPRPRPRPLCGPRP,0.623
11,RRIRTRPPRLPRPRPRPRMAPRP,0.288
12,RRIRMRPPRLPRPRPRPVVDPRP,0.0138
13,RRIRKRPPRLPRPRPRPKDSPRP,0.218
14,RRIRARPPRLPRPRPRPRGWPRP,1.07
15,RRIRKRPPRLPRPRPRPVREPRP,0.817
16,RRIRSRPPRLPRPRPRPETKPRP,0.187
17,RRIRCRPPRLPRPRPRPEHKPRP,-0.221
18,RRIRTRPPRLPRPRPRPGTVPRP,0.0209
19,RRIRIRPPRLPRPRPRPATHPRP,-0.165
20,RRIRKRPPRLPRPRPRPSRMPRP,0.317
21,RRIRGRPPRLPRPRPRPTFAPRP,0.997
22,RRIRERPPRLPRPRPRPTQYPRP,-0.304
23,RRIRARPPRLPRPRPRPTIMPRP,0.15
24,RRIRRRPPRLPRPRPRPRGCPRP,0.984
25,RRIRTRPPRLPRPRPRPHHGPRP,-0.0105

row,Sequence,shrunken log2 fold change
1,RRIRRRPPRLPRPRPRPNEDPRP,0.352
2,RRIRLRPPRLPRPRPRPVGVPRP,-0.0387
3,RRIRFRPPRLPRPRPRPSRAPRP,0.352
4,RRIRYRPPRLPRPRPRPWFVPRP,-0.271
5,RRIRMRPPRLPRPRPRPDGCPRP,2.12
6,RRIRYRPPRLPRPRPRPMCSPRP,-0.116
7,RRIRPRPPRLPRPRPRPIYYPRP,-0.323
8,RRIRWRPPRLPRPRPRPNWEPRP,-0.00663
9,RRIRLRPPRLPRPRPRPWRHPRP,-0.0415
10,RRIRIRPPRLPRPRPRPWGRPRP,-0.239
11,RRIRSRPPRLPRPRPRPCRQPRP,-0.184
12,RRIRRRPPRLPRPRPRPKRCPRP,-0.131
13,RRIRHRPPRLPRPRPRPRSEPRP,0.117
14,RRIRNRPPRLPRPRPRPLQVPRP,-0.136
15,RRIRIRPPRLPRPRPRPDMIPRP,-0.0965
16,RRIRWRPPRLPRPRPRPIFYPRP,-0.0652
17,RRIRNRPPRLPRPRPRPRSSPRP,-0.145
18,RRIRVRPPRLPRPRPRPYHCPRP,-0.157
19,RRIRWRPPRLPRPRPRPIAWPRP,0.713
20,RRIRTRPPRLPRPRPRPGPTPRP,0.455
21,RRIRWRPPRLPRPRPRPQMCPRP,0.349
22,RRIRSRPPRLPRPRPRPYPKPRP,-0.119
23,RRIRVRPPRLPRPRPRPLHTPRP,-0.0261
24,RRIRRRPPRLPRPRPRPNSAPRP,0.282
25,RRIRLRPPRLPRPRPRPEHLPRP,-0.118

row,Sequence,shrunken log2 fold change
1,RRIRFRPPRLPRPRPRPMKGPRP,-0.0547
2,RRIRHRPPRLPRPRPRPFPEPRP,-0.104
3,RRIRVRPPRLPRPRPRPFRRPRP,-0.101
4,RRIRKRPPRLPRPRPRPAVAPRP,0.0118
5,RRIRLRPPRLPRPRPRPEVMPRP,0.0474
6,RRIRARPPRLPRPRPRPYAAPRP,0.375
7,RRIRWRPPRLPRPRPRPQHVPRP,-0.274
8,RRIRPRPPRLPRPRPRPGLTPRP,0.0985
9,RRIRMRPPRLPRPRPRPLAVPRP,0.328
10,RRIRMRPPRLPRPRPRPPTHPRP,0.696
11,RRIRTRPPRLPRPRPRPPDSPRP,-0.0615
12,RRIRARPPRLPRPRPRPRRRPRP,0.888
13,RRIRDRPPRLPRPRPRPSEMPRP,-0.0135
14,RRIRCRPPRLPRPRPRPPQGPRP,0.29
15,RRIRERPPRLPRPRPRPQRAPRP,0.254
16,RRIRERPPRLPRPRPRPPHFPRP,0.568
17,RRIRGRPPRLPRPRPRPSDCPRP,0.105
18,RRIRTRPPRLPRPRPRPFNLPRP,-0.336
19,RRIRHRPPRLPRPRPRPNTIPRP,-0.903
20,RRIRWRPPRLPRPRPRPHFSPRP,-0.205
21,RRIRIRPPRLPRPRPRPAKVPRP,-0.224
22,RRIRARPPRLPRPRPRPITHPRP,-0.045
23,RRIRVRPPRLPRPRPRPNWVPRP,0.213
24,RRIRQRPPRLPRPRPRPDIRPRP,-0.154
25,RRIRQRPPRLPRPRPRPIQGPRP,-0.0863

row,Sequence,shrunken log2 fold change
1,RRIRMRPPRLPRPRPRPLEPPRP,0.261
2,RRIRNRPPRLPRPRPRPCCFPRP,-0.278
3,RRIRNRPPRLPRPRPRPAFEPRP,0.0155
4,RRIRRRPPRLPRPRPRPATRPRP,0.226
5,RRIRIRPPRLPRPRPRPQDEPRP,0.0381
6,RRIRIRPPRLPRPRPRPYCVPRP,-0.207
7,RRIRARPPRLPRPRPRPRKFPRP,0.421
8,RRIRIRPPRLPRPRPRPFYYPRP,-0.667
9,RRIRQRPPRLPRPRPRPARSPRP,0.0407
10,RRIRPRPPRLPRPRPRPHFIPRP,-0.468
11,RRIRLRPPRLPRPRPRPYDHPRP,-0.165
12,RRIRRRPPRLPRPRPRPCNVPRP,0.0391
13,RRIRVRPPRLPRPRPRPMCFPRP,-0.178
14,RRIRMRPPRLPRPRPRPWRPPRP,0.308
15,RRIRYRPPRLPRPRPRPTMDPRP,-0.67
16,RRIRRRPPRLPRPRPRPYCLPRP,-0.574
17,RRIRFRPPRLPRPRPRPKCSPRP,-0.0194
18,RRIRGRPPRLPRPRPRPYTNPRP,-0.313
19,RRIRDRPPRLPRPRPRPVQMPRP,-0.0835
20,RRIRIRPPRLPRPRPRPQRNPRP,-0.188
21,RRIRSRPPRLPRPRPRPAQPPRP,0.181
22,RRIRLRPPRLPRPRPRPFQHPRP,-0.175
23,RRIRLRPPRLPRPRPRPCEYPRP,0.0103
24,RRIRCRPPRLPRPRPRPCRRPRP,0.0819
25,RRIRMRPPRLPRPRPRPVELPRP,-0.281
